Among the data in publication PMC11382572, “Structural and kinetic insights into the stereospecific oxidation of R-2,3-dihydroxypropanesulfonate by DHPS-3-dehydrogenase from Cupriavidus pinatubonensis” (Chemical Science, 2024) are Km and kcat/Km values, retold here.

Data set [1] concerns O=S(=O)(O)C[C@H](O)CO. As to the kind of experiment: Michaelis-Menten kinetics (apparent KM). The data set is classed as biochemical, Cupriavidus pinatubonensis. To be noted: Zn2+, NAD+.
In data set [2] the test system is O=S(=O)(O)C[C@H](O)CO. Description: purified protein. In kind it is biochemical, Cupriavidus pinatubonensis. As to conditions: Zn2+.

A word on the Km: it is the concentration of substrate that gives half-maximal velocity. In general, kcat/Km refers to the second-order rate constant that governs catalysis at low substrate concentration. For “DHPS-3-dehydrogenase (CpHpsN) (Cupriavidus pinatubonensis JMP134; E318A)”, in the data set with O=S(=O)(O)C[C@H](O)CO [1], the Km is 2800 ± 300 µM and the kcat/Km was 1.8 M⁻¹ s⁻¹.

For “DHPS-3-dehydrogenase (CpHpsN) (Cupriavidus pinatubonensis JMP134; H319A)”, the Km in the data set on O=S(=O)(O)C[C@H](O)CO [2] is 1200 ± 300 µM. Further, the kcat/Km in the data set on O=S(=O)(O)C[C@H](O)CO [2] (NADH active site, sulfonate and secondary hydroxyl groups participate in octahedral zinc coordination, occupancy […]) stood at 3.1 M⁻¹ s⁻¹.
